Experimental data from US20200276326A1.
One block for each molecule: values may come before it.

What was measured:
[1] = target: human CD5 on cells (MOLT-4 human T lymphoblast cells; primary human T-cells) (human) (UniProt P06127); assay: flow cytometry on MOLT-4 cells, anti-mouse AF488 secondary, 4 C
[2] = target: purified human CD5 ectodomain (human) (UniProt P06127); assay: BLI (Octet Red96), antibody on anti-human Fc biosensors, 50 nM CD5 ectodomain, 25 C
[3] = target: human CD5 on cells (MOLT-4 human T lymphoblast cells; primary human T-cells) (human) (UniProt P06127); assay: flow cytometry on primary human T-cells, AF488 secondary, antibody titration at 37 C

EC50 [1]: 354 pM
Molecule: murine anti-CD5 antibody UCHT2 (BioLegend)

EC50 [1]: 43 pM
Molecule: murine anti-CD5 antibody CRIS-1 (Novus Biologicals)

Kd [2]: 141 pM | Response [2]: 0.67 nm | koff [2]: 3.36e-05 s⁻¹ | kon [2]: 239000 M⁻¹ s⁻¹ | EC50 [3]: 3 pM
B1: anti-CD5 antibody 5D7 hIgG1 (humanized version of murine antibody 5D7) (antibody, V domains shown)
VH: QVTLKESGPVLVKPTETLTLTCTFSGFSLSTSGMGVGWIRQAPGKGLEWVAHIWWDDDVYYNPSLKSRLTITKDASKDQVSLKLSSVTAADTAVYYCVRRRATGTGFDYWGQGTLVTVSS
VL: NIVMTQSPSSLSASVGDRVTITCQASQDVGTAVAWYQQKPDQSPKLLIYWTSTRHTGVPDRFTGSGSGTDFTLTISSLQPEDIATYFCHQYNSYNTFGSGTKLEIK
